Where a chain is given by its changes, count along the chain named. Names may count otherwise.
Target: T1, PUF4 RNA-binding domain (Saccharomyces cerevisiae, UniProt P25339 537-888)
T1 sequence: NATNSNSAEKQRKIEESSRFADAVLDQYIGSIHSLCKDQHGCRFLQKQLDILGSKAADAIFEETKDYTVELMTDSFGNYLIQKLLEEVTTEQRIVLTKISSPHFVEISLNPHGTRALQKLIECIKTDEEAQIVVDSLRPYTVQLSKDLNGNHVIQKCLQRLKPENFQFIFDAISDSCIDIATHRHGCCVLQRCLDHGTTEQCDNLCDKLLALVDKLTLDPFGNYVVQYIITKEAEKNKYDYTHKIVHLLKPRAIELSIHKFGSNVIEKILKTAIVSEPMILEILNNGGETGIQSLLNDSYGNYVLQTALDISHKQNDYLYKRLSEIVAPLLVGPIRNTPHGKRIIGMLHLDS
Experiment: Mg; RNA-MaP; 20 mM Na-HEPES pH 7.4, 30 mM KOAc, 0.75 mM MgCl2, 0.1% Tween-20, 5% glycerol, 0.1 mg/mL BSA, 2 mM DTT; 25 C; 0.0125-409.6 nM protein
Conditions: tags: N-His6-TEV cleaved; C-SNAP kept, Cy3B-labelled; label: tethered on chip by stalled RNA polymerase

B1: Ic_S2_P4E.1_K4.1_C4.1_H4.1_A4.1_[T5C]_[T7C]_F4.1_[T8A]_T4.1 (ssRNA)
RNA: UUUGAUUAAUAUGAUAUCGUUCUUUCUUGUACACAAUUCUUUCUCGAUAUCAUAUUAAUCUUU
Binder B1 has a Kd of 13.8 nM.

B2: Ic_S2_P4E.1_K4.1_C4.1_H4.1_A4.1_[T5C]_[T7C]_F4.1_[A9G]_T4.1 (ssRNA)
RNA: B1 RNA with A35U, A36G
Work on B2 yielded a Kd of 2.73 nM.

B3: Ic_S2_P4E.1_K4.1_C4.1_H4.1_A4.1_[T5C]_[T7C]_F4.1_[A9C]_T4.1 (ssRNA)
RNA: B1 RNA with A35U, A36C
B3 gave a Kd of 5.21 nM.

B4: Ic_S2_P4E.1_K4.1_C4.1_H4.1_A4.1_[T5C]_[T7C]_F4.1_[A9T]_T4.1 (ssRNA)
RNA: B1 RNA with A35U, A36U
B4 showed a Kd of 2.92 nM.

B5: Ic_S2_P4E.1_K4.1_C4.1_H4.1_A4.1_[T5C]_[T7A]_F4.1_[T8C]_[A9G]_T4.1 (ssRNA)
RNA: B1 RNA with C34A, A35C, A36G
For B5, the Kd was 55.1 nM.

B6: Ic_S2_P4E.1_K4.1_C4.1_H4.1_A4.1_[T5C]_[T7A]_F4.1_[T8C]_[A9C]_T4.1 (ssRNA)
RNA: B1 RNA with C34A, A35C, A36C
B6 showed a Kd of 87.7 nM.

In the case of UCUCUUUGUACGUAUCUCUU (ssRNA) [Ic_S1_P3E.1_K3.1_C3.1_H3.1_A3.1_[T5C]_[A6G]_F3.1_T3.1], the Kd is reported as 149 nM.

B7: Ic_S2_P4E.1_K4.1_C4.1_H4.1_A4.1_[T5C]_[T7A]_F4.1_[T8C]_T4.1 (ssRNA)
RNA: B1 RNA with C34A, A35C
For B7, the Kd was 17.4 nM.

B8: Ic_S2_P4E.1_K4.1_C4.1_H4.1_A4.1_[T5C]_[T7A]_F4.1_[A9G]_T4.1 (ssRNA)
RNA: B1 RNA with C34A, A35U, A36G
B8 was tested, and the Kd was 7.25 nM.

B9: Ic_S2_P4E.1_K4.1_C4.1_H4.1_A4.1_[T5C]_F4.1_[T8C]_[A9G]_T4.1 (ssRNA)
RNA: B1 RNA with C34U, A35C, A36G
Work on B9 yielded a Kd of 22.3 nM.

B10: Ic_S2_P4E.1_K4.1_C4.1_H4.1_A4.1_[T5C]_F4.1_[T8C]_[A9C]_T4.1 (ssRNA)
RNA: B1 RNA with C34U, A35C, A36C
B10 was tested, and the Kd was 12.3 nM.

B11: Ic_S2_P4E.1_K4.1_C4.1_H4.1_A4.1_[T5C]_F4.1_[T8A]_[A9C]_T4.1 (ssRNA)
RNA: B1 RNA with C34U, A36C
B11 showed a Kd of 4.76 nM.

B12: Ic_S2_P4E.1_K4.1_C4.1_H4.1_A4.1_[T5A]_[A6C]_[T7G]_F4.1_[T8G]_[A9T]_T4.1 (ssRNA)
RNA: B1 RNA with C32A, A33C, C34G, A35G, A36U
With B12 the Kd was 1410 nM.

B13: Ic_S2_P4E.1_K4.1_C4.1_H4.1_A4.1_[T5A]_[A6C]_[T7G]_F4.1_[T8C]_[A9C]_T4.1 (ssRNA)
RNA: B1 RNA with C32A, A33C, C34G, A35C, A36C
B13 showed a Kd of 851 nM.

B14: Ic_S2_P4E.1_K4.1_C4.1_H4.1_A4.1_[T5A]_[A6C]_[T7G]_F4.1_[T8C]_[A9T]_T4.1 (ssRNA)
RNA: B1 RNA with C32A, A33C, C34G, A35C, A36U
B14 showed a Kd of 190 nM.

B15: Ic_S2_P4E.1_K4.1_C4.1_H4.1_A4.1_[T5A]_[A6C]_[T7G]_F4.1_[T8C]_T4.1 (ssRNA)
RNA: B1 RNA with C32A, A33C, C34G, A35C
For B15, the Kd was 747 nM.

B16: Ic_S2_P4E.1_K4.1_C4.1_H4.1_A4.1_[T5A]_[A6C]_[T7G]_F4.1_T4.1 (ssRNA)
RNA: B1 RNA with C32A, A33C, C34G, A35U
For B16, the Kd was 11 nM.

In the case of UCUCUUUGUACCUAUCUCUU (ssRNA) [Ib_S1_P3E.1_K3.1_C3.1_H3.1_A3.1_[T5C]_[A6C]_F3.1_T3.1], the Kd is reported as 86.7 nM.

B17: Ic_S2_P4E.1_K4.1_C4.1_H4.1_A4.1_[T5A]_[A6C]_[T7C]_F4.1_[T8C]_[A9G]_T4.1 (ssRNA)
RNA: B1 RNA with C32A, A33C, A35C, A36G
Work on B17 yielded a Kd of 742 nM.

B18: Ic_S2_P4E.1_K4.1_C4.1_H4.1_A4.1_[T5A]_[A6C]_[T7C]_F4.1_[T8C]_[A9C]_T4.1 (ssRNA)
RNA: B1 RNA with C32A, A33C, A35C, A36C
Binder B18 has a Kd of 582 nM.

B19: Ic_S2_P4E.1_K4.1_C4.1_H4.1_A4.1_[T5A]_[A6C]_[T7C]_F4.1_[T8C]_T4.1 (ssRNA)
RNA: B1 RNA with C32A, A33C, A35C
In the case of B19, the Kd is reported as 666 nM.

B20: Ic_S2_P4E.1_K4.1_C4.1_H4.1_A4.1_[T5A]_[A6C]_[T7C]_F4.1_[T8A]_[A9C]_T4.1 (ssRNA)
RNA: B1 RNA with C32A, A33C, A36C
B20 showed a Kd of 1570 nM.

B21: Ic_S2_P4E.1_K4.1_C4.1_H4.1_A4.1_[T5A]_[A6C]_[T7C]_F4.1_[A9C]_T4.1 (ssRNA)
RNA: B1 RNA with C32A, A33C, A35U, A36C
In the case of B21, the Kd is reported as 44.4 nM.

B22: Ic_S2_P4E.1_K4.1_C4.1_H4.1_A4.1_[T5A]_[A6C]_[T7C]_F4.1_[A9T]_T4.1 (ssRNA)
RNA: B1 RNA with C32A, A33C, A35U, A36U
Work on B22 yielded a Kd of 24.6 nM.

B23: Ic_S2_P4E.1_K4.1_C4.1_H4.1_A4.1_[T5A]_[A6C]_[T7A]_F4.1_[T8G]_[A9C]_T4.1 (ssRNA)
RNA: B1 RNA with C32A, A33C, C34A, A35G, A36C
Binder B23 has a Kd of 777 nM.

B24: Ic_S2_P4E.1_K4.1_C4.1_H4.1_A4.1_[T5A]_[A6C]_[T7A]_F4.1_[T8A]_[A9T]_T4.1 (ssRNA)
RNA: B1 RNA with C32A, A33C, C34A, A36U
In the case of B24, the Kd is reported as 45.2 nM.

B25: Ic_S2_P4E.1_K4.1_C4.1_H4.1_A4.1_[T5A]_[A6C]_[T7A]_F4.1_[A9C]_T4.1 (ssRNA)
RNA: B1 RNA with C32A, A33C, C34A, A35U, A36C
In the case of B25, the Kd is reported as 16 nM.

B26: Ic_S2_P4E.1_K4.1_C4.1_H4.1_A4.1_[T5A]_[A6C]_F4.1_[T8G]_[A9G]_T4.1 (ssRNA)
RNA: B1 RNA with C32A, A33C, C34U, A35G, A36G
Binder B26 has a Kd of 701 nM.

In the case of UCUCUUUGUACUUAUCUCUU (ssRNA) [Ic_S1_P3E.1_K3.1_C3.1_H3.1_A3.1_[T5C]_[A6T]_F3.1_T3.1], the Kd is reported as 66.4 nM.
